First the molecules themselves.
T1: full-length recombinant FC27 MSP2 (Plasmodium falciparum, UniProt P19260 21-261)
T1 chain: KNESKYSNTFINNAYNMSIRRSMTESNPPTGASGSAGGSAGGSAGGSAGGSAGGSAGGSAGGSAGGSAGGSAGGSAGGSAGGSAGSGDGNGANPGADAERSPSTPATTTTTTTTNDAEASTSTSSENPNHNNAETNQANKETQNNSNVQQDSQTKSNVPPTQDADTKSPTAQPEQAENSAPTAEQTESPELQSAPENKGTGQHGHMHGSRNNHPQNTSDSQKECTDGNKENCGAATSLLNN

T2: full-length recombinant 3D7 MSP2 (Plasmodium falciparum, UniProt P50498 21-246)
T2 chain: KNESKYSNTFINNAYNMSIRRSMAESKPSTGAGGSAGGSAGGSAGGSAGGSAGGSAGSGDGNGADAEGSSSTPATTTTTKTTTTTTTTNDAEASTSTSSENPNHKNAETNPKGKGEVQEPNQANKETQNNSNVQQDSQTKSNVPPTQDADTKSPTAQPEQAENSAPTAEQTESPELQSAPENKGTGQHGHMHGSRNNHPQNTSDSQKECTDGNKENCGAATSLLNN

B1: mouse monoclonal antibody 6D8 (antibody, V domains shown)
VH: QVQLQQSGDELVKPGASVKLSCTVSGFNIKDDFIHWMKQRPEQGLEWIGRIDPANGYTKYAPKFQDKATMTADTSSNTAYLQLSSLASEDAAVYYCATYGVAYWGQGTLVTVSA
VL: DIVLTQSPASLAVSLGQRATISCKASQSVDHDGDSYMNWFQQKPGQSPKLLIYAASNLESGIPARFSGSGSGTDFTLNIHPVEEEDAATYYCQQTNEDPYTFGGGTKLEIK
B2: 6D8 scFv (scFv, V domains shown)
VH: B1 VH
VL: B1 VL

Where two headings read alike, the source gives them in different places.

Holding throughout (experiment): ITC
(In general: ITC needs no label: the signal is the heat of the interaction.)

The test “6D8 scFv” has as its target B2.
In test [1] the target is T1, full-length recombinant FC27 MSP2.
Test [2] has as its target T2, full-length recombinant 3D7 MSP2.
Test [3] deals with T1, full-length recombinant FC27 MSP2.
Test [4] concerns the target T2, full-length recombinant 3D7 MSP2.

The values below come from paper PMC4428071 (2015).

The Kd is the free concentration of one partner at which half of the binding sites on the other are occupied at equilibrium, for simple one-to-one binding. In the test with 6D8 scFv, NAYNMSIRRSMAESKPS [3D7-MSP2_(14-30)] registered a Kd of 64 nM.

Regarding B1, the Kd stood at 16 nM in test [1] and 64 nM in test [2].

B2: the Kd is 13 nM in test [1], 61 nM in test [2], 13 nM in test [3] and 61 nM in test [4].

Turning to NAYNMSIRRSMANEGSN [FC27-MSP2_(14-30)], in the test with 6D8 scFv, binding was put at a Kd of 16 nM.
